Results on one molecule are retold here after PMC3906126 (2013).

This assay deals with T1, ErbB4 PY3 motif (Homo sapiens, UniProt Q15303).
T1 chain: KPGTVLPPPPYRHRNTVV

As usually defined, the Kd is the concentration at which binding is half-saturated. Higher therefore signals weaker binding. Molecule DSEDELPPGWEERTTKDGWVYYANHTEEKTQWEHPKTGKR [WWOX WW1] showed an equilibrium dissociation constant (Kd) of about 100 µM.
